Starred links: 1 amine or outer side, 2 acyl side, 3 side chain; linkers in the order of their positions; H or OH if unused. Non-standard residues stand in square brackets, D forms with d. Groups on a side chain read outwards from the residue. *: point of attachment. Hexadecanoyl(16-SO3H) = O=C(CCCCCCCCCCCCCCCS(=O)(=O)O)*; C20 diacid = O=C(O)CCCCCCCCCCCCCCCCCCC(=O)*; C18 diacid = O=C(O)CCCCCCCCCCCCCCCCC(=O)*; C16 diacid = O=C(O)CCCCCCCCCCCCCCC(=O)*; γGlu = O=C(O)[C@H](CCC(=O)[*:2])N[*:1]; C14 diacid = O=C(O)CCCCCCCCCCCCC(=O)*; εLys = N[C@@H](CCCCN[*:1])C(=O)[*:2]; AEEA = NCCOCCOCC(=O)O; Aib = CC(C)(N)C(=O)O; Ahx = NCCCCCC(=O)O
T1: human amylin-3 (a) receptor (human, UniProt P30988 25-474; O60896 24-148)
T1 sequence (looked up) 1: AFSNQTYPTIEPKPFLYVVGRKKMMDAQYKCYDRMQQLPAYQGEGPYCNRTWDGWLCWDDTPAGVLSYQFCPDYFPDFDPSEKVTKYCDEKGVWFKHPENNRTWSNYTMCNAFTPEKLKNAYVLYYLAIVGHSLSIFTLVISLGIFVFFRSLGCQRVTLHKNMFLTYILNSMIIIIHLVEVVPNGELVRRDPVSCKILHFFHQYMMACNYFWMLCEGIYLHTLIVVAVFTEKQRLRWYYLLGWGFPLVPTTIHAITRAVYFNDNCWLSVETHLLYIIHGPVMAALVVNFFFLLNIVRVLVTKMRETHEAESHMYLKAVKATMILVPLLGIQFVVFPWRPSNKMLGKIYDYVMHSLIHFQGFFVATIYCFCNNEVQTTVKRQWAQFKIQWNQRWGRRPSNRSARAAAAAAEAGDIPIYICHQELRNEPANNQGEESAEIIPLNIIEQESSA
T1 sequence (looked up) 2: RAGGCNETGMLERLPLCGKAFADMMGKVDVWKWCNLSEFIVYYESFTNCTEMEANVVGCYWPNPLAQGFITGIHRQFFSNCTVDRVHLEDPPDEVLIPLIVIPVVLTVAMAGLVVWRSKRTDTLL

B1: Compound 0657 (peptide)
peptide: H[Aib]EGTFTSDVSSYLEEQAAREFIAWLVRGRK([εLys-εLys-γGlu-C20 diacid])GGGGEASELSTAALGRLSAELHELATLPRTETGSGSP-NH2
B2: Compound 0655 (peptide)
peptide: H[Aib]EGTFTSDVSSYLEEQAAREFIAWLVRGRK([AEEA-AEEA-γGlu-17‑(1H-tetrazol-5-yl)heptadecanoyl])GGGGEASELSTAALGRLSAELHELATLPRTETGSGSP-NH2
B3: Compound 0654 (peptide)
peptide: H[Aib]EGTFTSDVSSYLEEQAAREFIAWLVRGRK([AEEA-AEEA-γGlu-Hexadecanoyl(16-SO3H)])GGGGEASELSTAALGRLSAELHELATLPRTETGSGSP-NH2
B4: Compound 0658 (peptide)
peptide: H[Aib]EGTFTSDVSSYLEEQAAREFIAWLVRGRK([Ahx-Ahx-γGlu-C18 diacid])GGGGEASELSTAALGRLSAELHELATLPRTETGSGSP-NH2
B5: Compound 0071 (peptide)
peptide: H[Aib]EGTFTSDVSSYLEGQAAK([AEEA-AEEA-γGlu-C18 diacid])EFIAWLVRGRGGQEPGQEPK([AEEA-AEEA-γGlu-C18 diacid])EASELSTAALGRLSAELHELATLPRTETGSGSP-NH2
B6: Compound 0580 (peptide)
peptide: H[Aib]EGTFTSDVSSYLEEQAARK([AEEA-AEEA-γGlu-C20 diacid])FIAWLVRGGASELSTAALGRLSAELHELATLPRTETGSGSP-NH2
B7: Compound 0638 (peptide)
peptide: H[Aib]EGTFTSDVSSYLEEQAAREFIAWLVRGRK([AEEA-AEEA-γGlu-C20 diacid])GGGGSGGGEASELSTAALGRLSAELHELATLPRTETGSGSP-NH2
B8: Compound 0632 (peptide)
peptide: H[Aib]EGTFTSDVSK([γGlu-γGlu-γGlu-γGlu-C20 diacid])YLEEQAAREFIEWLVRGAAEASELSTAALGRLSAELHELATLPRTETGSGSP-NH2
B9: Compound 0633 (peptide)
peptide: H[Aib]EGTFTSDVSSYLEEQAARK([γGlu-γGlu-γGlu-γGlu-C20 diacid])FIAWLVRGRGGGGGEASELSTAALGRLSAELHELATLPRTETGSGSP-NH2
B10: Compound 0648 (peptide)
peptide: HWEGTFTSDVSSYLEEQAAREFIAWLVRGRK([AEEA-AEEA-γGlu-C18 diacid])GGGGEASELSTAALGRLSAELHELATLPRTETGSGSP-NH2
B11: Compound 0629 (peptide)
peptide: H[Aib]EGTFTSDVSK([AEEA-AEEA-γGlu-C16 diacid])YLEEQAARKFIEWLVRGAAEASELSTAALGRLSAELHELATLPRTETGSGSP-NH2
modifications: not fully specified (residue 21)
B12: Compound 0009 (peptide)
peptide: H[Aib]EGTFTSDVSSYLEGQAAREFIAWLVRGK([AEEA-AEEA-γGlu-C18 diacid])GEGEGEEASELSTAALGRLSAELHELATLPRTETGSGSP-NH2
B13: Compound 0640 (peptide)
peptide: H[Aib]EGTFTSDVSK([AEEA-AEEA-γGlu-C18 diacid])YLEEQAAREFIAWLVRGRGGGGGEASELSTAALGRLSAELHELATLPRTETGSGSP-NH2
B14: Compound 0637 (peptide)
peptide: H[Aib]EGTFTSDVSSYLEEQAAREFIAWLVRGRK([AEEA-AEEA-γGlu-C18 diacid])GGGGSGGGEASELSTAALGRLSAELHELATLPRTETGSGSP-NH2
B15: Compound 0634 (peptide)
peptide: H[Aib]EGTFTSDVSK([γGlu-γGlu-γGlu-γGlu-C16 diacid])YLEEQAARK([γGlu-γGlu-γGlu-γGlu-C16 diacid])FIAWLVRGRGEASELSTAALGRLSAELHELATLPRTETGSGSP-NH2
B16: Compound 0575 (peptide)
peptide: H[Aib]EGTFTSDVSK([AEEA-AEEA-γGlu-C16 diacid])YLEEQAARK([AEEA-AEEA-γGlu-C16 diacid])FIAWLVRGRQEGGGGGASELSTAALGRLSAELHELATLPRTETGSGSP-NH2
B17: Compound 0577 (peptide)
peptide: H[Aib]EGTFTSDVSK([AEEA-AEEA-γGlu-C16 diacid])YLEEQAARKFIEWLVRGRGEASELSTAALGRLSAELHELATLPRTETGSGSP-NH2
modifications: not fully specified (residue 21)
B18: Compound 0630 (peptide)
peptide: H[Aib]EGTFTSDVSK([Ahx-γGlu-γGlu-C16 diacid])YLEEQAARK([Ahx-γGlu-γGlu-C16 diacid])FIEWLVRGAAEASELSTAALGRLSAELHELATLPRTETGSGSP-NH2
B19: Compound 0576 (peptide)
peptide: H[Aib]EGTFTSDVSK([AEEA-AEEA-γGlu-C16 diacid])YLEEQAARKFIEWLVRGRGEGGGGGASELSTAALGRLSAELHELATLPRTETGSGSP-NH2
modifications: not fully specified (residue 21)
B20: Compound 0057 (peptide)
peptide: H[Aib]EGTFTSDVSSYLEGQAAK([AEEA-AEEA-γGlu-C18 diacid])EFIAWLVRGRGGQEK([AEEA-AEEA-γGlu-C18 diacid])GQEPEASELSTAALGRLSAELHELATLPRTETGSGSP-NH2
B21: Compound 0581 (peptide)
peptide: H[Aib]EGTFTSDVSSYLEEQAARK([AEEA-AEEA-γGlu-C20 diacid])FIEWLVRGASELSTAALGRLSAELHELATLPRTETGSGSP-NH2
B22: Compound 0635 (peptide)
peptide: H[Aib]EGTFTSDVSK([AEEA-AEEA-γGlu-C14 diacid])YLEEQAARKFIAWLVRGRK([AEEA-AEEA-γGlu-C14 diacid])GGEASELSTAALGRLSAELHELATLPRTETGSGSP-NH2
modifications: not fully specified (residue 21)
B23: Compound 0656 (peptide)
peptide: H[Aib]EGTFTSDVSSYLEEQAAREFIAWLVRGRK([εLys-εLys-γGlu-C18 diacid])GGGGEASELSTAALGRLSAELHELATLPRTETGSGSP-NH2
B24: Compound 0578 (peptide)
peptide: H[Aib]EGTFTSDVSK([AEEA-AEEA-γGlu-C16 diacid])YLEEQAARKFIAWLVRGRQEASELSTAALGRLSAELHELATLPRTETGSGSP-NH2
modifications: not fully specified (residue 21)
B25: Compound 0639 (peptide)
peptide: H[Aib]EGTFTSDVSSYLEEQAARK([AEEA-AEEA-γGlu-C18 diacid])FIAWLVRGRGGGGGEASELSTAALGRLSAELHELATLPRTETGSGSP-NH2

Target: human GLP-1 receptor (human, UniProt P43220 24-463)
Test: cell-based or functional assay

Binder | Human GLP-1R potency [EC50 (pM)] [pM]
B1 | 9.9
B2 | 3
B3 | 2.9
B4 | 3.1
B5 | 69.4
B6 | 7.4
B7 | 4.6
B8 | 18.8
B9 | 28.2
B10 | 17
B11 | 7.9
B12 | 7.9
B13 | 2.3
B14 | 1.9
B15 | 14.7
B16 | 5.6
B17 | 5.6
B18 | 7.1
B19 | 2.9
B20 | 59
B21 | 17
B22 | 7.3
B23 | 4.1
B24 | 2.5
B25 | 1.5

Target: T1, human amylin-3 (a) receptor
Test: cell-based or functional assay

Binder | Human AmyR3 potency [EC50 (pM)] [pM]
B1 | 10.4
B2 | 11.4
B3 | 11.3
B4 | 11
B5 | 159
B6 | 9.3
B7 | 6.9
B8 | 148
B9 | 5.3
B10 | 9.2
B11 | 97.5
B12 | 49.5
B13 | 6
B14 | 14.1
B15 | 59.4
B16 | 8.3
B17 | 19.1
B18 | 110
B19 | 10.1
B20 | 165
B21 | 26.4
B22 | 78.9
B23 | 13.3
B24 | 26.9
B25 | 4.6
